Experimental data taken from publication PMC5552905, “Mechanisms of peptide sex pheromone regulation of conjugation in Enterococcus faecalis” (MicrobiologyOpen, 2017).
Entries after “also recorded” stand apart in the source; their conditions may differ. Like-named read-outs stand apart in the source and are kept apart here.

What was measured:
[1] = system: +10 probe (10 bp inserted between XBS1 and XBS2 sites); type: binding, Enterococcus faecalis (plasmid pCF10)
Source text: (§1) The LT DNA template containing XBS1 and XBS2 sites (LT DNA, pCF10 sequence from nt 8029 to nt8185 (Hirt et al., 2005)) was PCR amplified from pCF10 using primers as described in. The XBS1 DNA template only has XBS1 site (pCF10 sequence 8029–8131nt) was made by annealing oligos ‐129/‐47‐F (5′[…] 3′) and −129/−47R (5′[…] 3′) to obtain double‐stranded DNA. The XBS2 DNA template only has the XBS2 site (pCF10 sequence from 8109 to 8290; −66 to +114 relative to the prgQ transcription initiation site), and was PCR amplified from pCF10 using primers as described in Caserta et al., 2012. In DNA templates with 5‐bp or 10‐bp insertions, sequence GTACC or […] was inserted between XBS1 and XBS2 sites and at a position of 6‐bp after the XBS1 site. DNA probes were labeled at the 3′‐ends with DIG‐11‐ddUTP using the DIG Gel Shift kit (Roche) by following the manufacturer's instructions. EMSA assays were performed in 20 μl reactions: DIG‐labeled DNA, purified proteins, 1 μg of poly‐[d(A‐T)], 0.1 μg of poly‐L‐lysine, 1 × reaction buffer (20 mmol L^−1 Tris‐HCl, pH 7.9, 0.1 mol L^−1 NaCl, 0.1 mmol L^−1 EDTA, 10% glycerol, 0.01 mol L^−1 MgCl2). The reactions were incubated at room temperature for 15 min and loaded onto 5% polyacrylamide gels in 1 × TBE buffer (Tris, Borate, EDTA, pH 7.9). […]

P Q (prgQ promoter) = settings: purified PrgX, no peptide, ref Caserta et al., 2012, cited from earlier work
Source text: The target of PrgX‐peptide‐mediated regulation is the prgQ promoter (P Q), which controls expression of the majority of factors involved in pCF10 conjugation. PrgX binds specifically to two operator sites (XBS1 and XBS2) in the P Q region between prgX and prgQ. Because the lower‐affinity XBS2 site overlaps PQ, occupancy of XBS2 by PrgX could impede RNA polymerase binding to the promoter. Based on genetic and structural data, it was proposed that pairs of PrgX dimers could bind to XBS1 and XBS2, with the intervening DNA forming a loop that is stabilized by protein–protein interactions between t ... || It is interesting to consider transcription regulation in the pCF10 system by PrgX in relation to other well‐studied bacterial transcription factors. Many of the canonical transcription factors such as LacI are present in very low concentrations, and are modulated by low molecular weight ligands (co‐repressors, etc.) that are generally more abundant (Muller‐Hill, 1998). In contrast, wild‐type E. faecalis cells carrying pCF10 contain a large excess of PrgX (~15‐fold ratio of X dimers/XBSs) (Caserta et al., 2012), while the extracellular (and probably intracellular) concentrations of the peptide ...

[2] = system: XBS1 and XBS2 operator sites; settings: apo-PrgX, ref Bae et al., 2002, cited from earlier work
Source text: We determined effects of C and I on PrgX‐DNA binding using in vitro electrophoretic mobility shift assays (EMSAs).

[3] = system: LT DNA (XBS1 and XBS2 operator sites), P Q promoter region; type: binding, Enterococcus faecalis (plasmid pCF10); settings: LT DNA 8 fmol; PrgX 38-568 nmol L^−1 preincubated 5 min at room temperature with 40 nmol L^−1 peptide (C, I)
Source text: (§2) The LT DNA template containing XBS1 and XBS2 sites (LT DNA, pCF10 sequence from nt 8029 to nt8185 (Hirt et al., 2005)) was PCR amplified from pCF10 using primers as described in. The XBS1 DNA template only has XBS1 site (pCF10 sequence 8029–8131nt) was made by annealing oligos ‐129/‐47‐F (5′[…] 3′) and −129/−47R (5′[…] 3′) to obtain double‐stranded DNA. The XBS2 DNA template only has the XBS2 site (pCF10 sequence from 8109 to 8290; −66 to +114 relative to the prgQ transcription initiation site), and was PCR amplified from pCF10 using primers as described in Caserta et al., 2012. In DNA templates with 5‐bp or 10‐bp insertions, sequence GTACC or […] was inserted between XBS1 and XBS2 sites and at a position of 6‐bp after the XBS1 site. DNA probes were labeled at the 3′‐ends with DIG‐11‐ddUTP using the DIG Gel Shift kit (Roche) by following the manufacturer's instructions. EMSA assays were performed in 20 μl reactions: DIG‐labeled DNA, purified proteins, 1 μg of poly‐[d(A‐T)], 0.1 μg of poly‐L‐lysine, 1 × reaction buffer (20 mmol L^−1 Tris‐HCl, pH 7.9, 0.1 mol L^−1 NaCl, 0.1 mmol L^−1 EDTA, 10% glycerol, 0.01 mol L^−1 MgCl2). The reactions were incubated at room temperature for 15 min and loaded onto 5% polyacrylamide gels in 1 × TBE buffer (Tris, Borate, EDTA, pH 7.9). After electrophoresis at 100 V for 1.5 h, the DNA–protein complexes and DNA probes were electrotransferred onto a nylon membrane (Roche) at 6 V for 2 h using the GENIE electrophoretic blotter (Idea Scientific). DIG‐labeled DNA fragments were visualized by an enzyme immunoassay (DIG Gel Shift Kit, Roche) following the manufacturer's instructions. […] For the experiments reported here the powdered form of the peptides were initially solubilized in pure DMF at 0.5 mg/ml, and then diluted 10‐fold in KPBS for use as a working stock solution, which was diluted into the EMSA reactions to a final peptide concentration of 40 nmol L^−1.
EMSA assays were performed using 8 fmol of digoxigenin‐labeled LT DNA probes with increasing amounts of PrgX protein. PrgX was preincubated for 5‐min at room temperature with 40 nmol L^−1 of C (a) or I (b) before adding LT DNA. PrgX concentrations: lanes 2 and 6: 38 nmol L^−1; lanes 3 and 7: 76 nmol L^−1; lanes 4 and 8: 190 nmol L^−1; lanes 5 and 9: 568 nmol L^−1. (c) Cartoon showing the predicted products formed by binding PrgX to LT DNA.

[4] = system: +5 probe (5 bp inserted between XBS1 and XBS2 sites)
Source text: as §1

[5] = system: P Q (prgQ promoter) lacZ reporter; test: β-galactosidase assay of P Q-lacZ reporter (pBK2, pBK2 + 5, pBK2 + 10) in E. faecalis; type: cell-based, Enterococcus faecalis; settings: 10 ng/ml of C, 30 min at 37°C, PrgX in trans from pCF10, one experiment representative of three
Experimental: To construct plasmids pBK2 + 5 and pBK2 + 10, the intergenic region between prgQ and prgX was excised from plasmids pBKAdd5 and pBKAdd10 and was cloned into pBK2 using enzymes XhoI and BamHI. Plasmids pBKAdd5 and pBKAdd10 (have the 5‐bp and 10‐bp sequence inserted between XBS1 and XBS2 sites (Kozlowicz, 2005).
E. faecalis cultures were grown overnight in M9‐YEG broth at 37°C with selective antibiotics. Cultures were then diluted 1:10 in fresh medium and grown for 90 min at 37°C. For induction, a final concentration of 10 ng/ml of C was added and cells were incubated for additional 30 min at 37°C. A modified Miller assay was performed as previously described (Kozlowicz, Bae, & Dunny, 2004).
To examine the effects of looping in vivo, we introduced the +5 and +10 base pair insertions between XBS1 and XBS2 sites on the reporter plasmid pBK2, which has a pheromone‐inducible lacZ reporter gene fused downstream from P Q. This enables transcription from P Q to be monitored by measuring β‐galactosidase activity in cell extracts. We transformed these constructs into either OG1Sp or OG1Sp/pCF10 (to provide PrgX protein in trans) and the resulting strains were assayed for β‐galactosidase production in the presence or absence of C.
Figure 4 Expression of β‐galactosidase from E. faecalis cells containing pBK2, pBK2 + 5, and pBK2 + 10. […]

[6] = system: LT DNA (containing XBS1 and XBS2 sites); type: binding, Enterococcus faecalis (plasmid pCF10)
Source text: as §2

LT DNA (prgQ promoter) = type: binding, Enterococcus faecalis (plasmid pCF10)
Source text: as §2

[7] = system: B2 m1 DNA probe (XBS2 sequence changed); test: EMSA: PrgX and RNAP binding to B2 m1 probe (mutated XBS2); parameters: species or system Enterococcus faecalis (plasmid pCF10); settings: PrgX 18, 54 nmol L^−1; RNAP 200, 240 nmol L^−1; RT, 15 min
Source text: as §1

B1: PrgX: master transcription regulator PrgX, a repressor of transcription of the prgQ operon; apo form is a dimer in solution (protein)
chain: MFKIGSVLKQIRQELNYHQIDLYSGIMSKSVYIKVEADSRPISVEELSKFSERLGVNFFEILNRAGMNTKSVNETGKEKLLISKIFTNPDLFDKNFQRIEPKRLTSLQYFSIYLGYISIAHHYNIEVPTFNKTITSDLKHLYDKRTTFFGIDYEIVSNLLNVLPYEEVSSIIKPMYPIVDSFGKDYDLTIQTVLKNALTISIMNRNLKEAQYYINQFEHLKTIKNISINGYYDLEINYLKQIYQFLTDKNIDSYLNAVNIINIFKIIGKEDIHRSLVEELTKISAKEKFTPPKEVTMYYENYVAIENNPIPEIKEQS
modifications: left off: His tag, end not stated, kept
notes: master transcription regulator PrgX, a repressor of transcription of the prgQ operon; apo form is a dimer in solution
- shift of +10 probe (band I / band II) [1]: binding profile was similar to LT DNA wild‐type probe
- repression of P Q in vitro (P Q (prgQ promoter)): directly represses P Q
- repression of P Q in vitro (P Q (prgQ promoter); listed as apo‐PrgX): repress prgQ transcription in vitro
- relative affinity for XBS1 vs XBS2 / binding to probes lacking XBS1 ([2]; listed as Apo‐PrgX): binds to XBS1 with relatively higher affinity than to XBS2
- relative affinity for XBS1 vs XBS2 / binding to probes lacking XBS1 ([2]; listed as apo‐PrgX): reduced binding of apo‐PrgX to DNA probes lacking XBS1 and virtually no supershifted species resembling Band II
- effect on PrgX-DNA binding: shifted complexes, amount of band II (supershift) [3]: bound to the LT, producing two‐shifted complexes: band I and band II
- shift of +5 probe (band I / band II) [4]: shifted the probe nearly completely to band I, with no distinct supershifted band II
- lacZ expression (β-galactosidase), 5 bp insertion construct ([5]; pBK2 + 5): no effect on lacZ activity
- lacZ expression (β-galactosidase), 10 bp insertion construct ([5]; pBK2 + 10): β‐galactosidase expression was repressed
- fold higher K D of PrgX dimer to XBS1 site [6]: about 10 fold
- fold higher K D of PrgX dimers bound to XBS2 [6]: ~1000 fold
- Kd ([6]; EMSA densitometry, two-site binding polynomial, apo-PrgX (dimer) on LT DNA, mean ± SD of three independent EMSA experiments, read-out: K xbs1: K D of binding to XBS1 site): 4.04 ± 3.36 nM
- effect on LT DNA shifts / RNAP binding (LT DNA (prgQ promoter)): formation of the high‐molecular‐weight RNAP‐DNA species was nearly eliminated; also recorded: hinders RNAP binding to prgQ promoter
- binding to B2 m1 probe [7]: produced the band I shift, however, there was a dramatic reduction in band II
